From patent publication US20260151494A1 (ARO BIOTHERAPEUTICS, published 2026) come the findings set out here.

Where a chain is given by its changes, count along the chain named.

For test [1], the target named is T1, human CD71 extracellular domain (CD71-ECD) (human, UniProt P02786 89-760).
T1 construct: also called hCD71; human CD71-ECD
The test can be described thus: primary ELISA. Also: test concentration or dose not given here. Background: An ELISA detects its analyte on a solid surface through an enzyme-linked reagent.

For test [2], the target named is T1, human CD71 extracellular domain …. The test can be described thus: primary ELISA, RLU ratio to HSA.

T1 sequence (P02786 89-760): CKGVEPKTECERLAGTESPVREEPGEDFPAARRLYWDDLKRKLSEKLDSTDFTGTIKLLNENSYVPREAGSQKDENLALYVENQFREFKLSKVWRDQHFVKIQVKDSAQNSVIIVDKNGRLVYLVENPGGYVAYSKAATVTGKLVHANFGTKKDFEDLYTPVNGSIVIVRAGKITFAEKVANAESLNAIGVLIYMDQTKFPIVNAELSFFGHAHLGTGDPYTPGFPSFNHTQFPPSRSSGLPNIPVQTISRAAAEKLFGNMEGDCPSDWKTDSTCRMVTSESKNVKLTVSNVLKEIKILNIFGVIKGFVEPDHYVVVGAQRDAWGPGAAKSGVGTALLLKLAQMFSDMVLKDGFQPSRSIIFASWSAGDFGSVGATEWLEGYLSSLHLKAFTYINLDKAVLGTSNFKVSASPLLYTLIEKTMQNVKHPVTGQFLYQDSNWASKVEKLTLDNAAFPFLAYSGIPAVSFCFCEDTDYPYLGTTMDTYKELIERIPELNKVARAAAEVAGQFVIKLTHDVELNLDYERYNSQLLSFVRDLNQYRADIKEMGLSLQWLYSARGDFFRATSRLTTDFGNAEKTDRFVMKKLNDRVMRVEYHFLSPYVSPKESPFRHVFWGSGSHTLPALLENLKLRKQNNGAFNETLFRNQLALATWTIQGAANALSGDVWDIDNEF

B1: CD71-binding FN3 domain SEQ ID NO: 310 (designed binder)
chain: MSLPAPKNLVVSRVTEDSARLSWTAPDAAFDSFEIDYGEYSQAGEAIGLLVPGSERSYDLTGLKPGTEYAVWIGGVKGGFFSTPLEADFTT
Molecule B1 returned an RLU in test [1] of 2.22e+06 RLU. Further, in test [2], the “hCD71:HSA” value is 77.

B2: CD71-binding FN3 domain SEQ ID NO: 306 (designed binder)
chain: MSLPAPKNLVVSRVTEDSARLSWTAPDAAFDSFEIGHFENLYLGEAIVLTVPGSERSYDLTGLKPGIEYWVQIGGVKGGVWSVSLSAIFTT
The molecule B2 yielded an RLU in test [1] of 1.17e+06 RLU. For the same molecule, the “hCD71:HSA” value in test [2] was found to be 79.

B3: CD71-binding FN3 domain SEQ ID NO: 315 (designed binder)
chain: B2 chain with H37Y, I67T, V80N, V83A, S84P, F89S
In turn, B3 yielded an RLU in test [1] of 2.49e+06 RLU. The “hCD71:HSA” value in test [2] is 41.

B4: CD71-binding FN3 domain SEQ ID NO: 324 (designed binder)
chain: B2 chain with V14I, H37Y, I67T, V80N, V83A, S84P, F89S
Consider B4, for which the RLU in test [1] was found to be 3.13e+06 RLU. The “hCD71:HSA” value in test [2] worked out at 294.

B5: CD71-binding FN3 domain SEQ ID NO: 309 (designed binder)
chain: B2 chain with K7E, H37Y, I67T, V80N, V83A, S84P
In test [1], B5 registered an RLU of 3.57e+06 RLU. Besides, the “hCD71:HSA” value in test [2] was found to be 287.

B6: CD71-binding FN3 domain SEQ ID NO: 320 (designed binder)
chain: B2 chain with A5V, H37Y, F38W, L41A, L43K, I67T, V80N, V83A, S84P
In test [1], B6 returned an RLU of 2.36e+06 RLU. In test [2], the “hCD71:HSA” value turned out to be 172.

B7: CD71-binding FN3 domain SEQ ID NO: 326 (designed binder)
chain: B2 chain with H37Y, F38W, L41A, L43K, I67T, V83T, S84P
In turn, B7 returned an RLU in test [1] of 1.5e+06 RLU. Also, the “hCD71:HSA” value in test [2] amounted to 79.

B8: CD71-binding FN3 domain SEQ ID NO: 329 (designed binder)
chain: MSLPAPKNLVVSRVTEDSARLSWTAPDAAFDSFDIGYFEATYYGEAIVLTVPGSERSYDLTGLKPGTEYRVWIGGVKGGYYSNPLSAIFTT
In test [1], B8 displayed an RLU of 3.28e+06 RLU. Further, in test [2], the “hCD71:HSA” value amounted to 90.

B9: CD71-binding FN3 domain SEQ ID NO: 325 (designed binder)
chain: B2 chain with H37Y, I67T, V80N, V83A, S84P, A87E
Consider B9, for which, in test [1], the RLU was determined as 2.43e+06 RLU. In test [2], the “hCD71:HSA” value amounted to 114.

B10: CD71-binding FN3 domain SEQ ID NO: 330 (designed binder)
chain: B2 chain with H37Y, I67T, V80N, V83A, S84P, F89V
For B10, the RLU in test [1] was determined as 2.54e+06 RLU. Besides, the “hCD71:HSA” value in test [2] came out at 54.

B11: CD71-binding FN3 domain SEQ ID NO: 311 (designed binder)
chain: B8 chain with D34E, F38W, A40N, T41A, Y43K, R70V, W72F, Y80S, Y81W
In turn, B11 gave an RLU in test [1] of 2.38e+06 RLU. For the same molecule, the “hCD71:HSA” value in test [2] amounted to 133.

B12: CD71-binding FN3 domain SEQ ID NO: 327 (designed binder)
chain: B2 chain with H37Y, F38W, L41A, L43K, I67T, V80N, V83A, S84P
As for B12, the RLU in test [1] was 2.66e+06 RLU. Besides, the “hCD71:HSA” value in test [2] came out at 143.

B13: CD71-binding FN3 domain SEQ ID NO: 319 (designed binder)
chain: B2 chain with D27G, H37Y, I67T, S84P
Turning to B13, the RLU in test [1] came out at 3.35e+06 RLU. Also, the “hCD71:HSA” value in test [2] came to 137.

B14: CD71-binding FN3 domain SEQ ID NO: 308 (designed binder)
chain: B2 chain with L21M, A25T, H37Y, I67T, V80N, V83A, S84P
Turning to B14, the RLU in test [1] turned out to be 3.55e+06 RLU. Also, the “hCD71:HSA” value in test [2] stood at 127.

B15: CD71-binding FN3 domain SEQ ID NO: 316 (designed binder)
chain: B2 chain with V11I, H37Y, I67T, V80N, V83A, S84P
On to B15, for which, in test [1], the RLU turned out to be 3.03e+06 RLU. Also, the “hCD71:HSA” value in test [2] amounted to 301.

B16: CD71-binding FN3 domain SEQ ID NO: 322 (designed binder)
chain: B8 chain with D34E, A40I, Y42R, V48I, T50F, R70W, W72Q, Y80N, Y81W, N83A
In the case of B16, the RLU in test [1] was determined as 3.38e+06 RLU. Further, the “hCD71:HSA” value in test [2] came out at 171.

B17: CD71-binding FN3 domain SEQ ID NO: 307 (designed binder)
chain: B2 chain with D31N, H37Y, I67T, V80T, W81F, V83A, S84P
As for B17, the RLU in test [1] worked out at 3.75e+06 RLU. Also, the “hCD71:HSA” value in test [2] came to 50.

B18: CD71-binding FN3 domain SEQ ID NO: 323 (designed binder)
chain: B2 chain with H37Y, I67T, V80N, V83G, S84P
For B18, the RLU in test [1] came to 2.75e+06 RLU. For the same molecule, the “hCD71:HSA” value in test [2] amounted to 62.

B19: CD71-binding FN3 domain SEQ ID NO: 312 (designed binder)
chain: B2 chain with H37Y, V51I, I67T, V80N, V83A, S84P
Consider B19, for which the RLU in test [1] was determined as 3.1e+06 RLU. Moreover, in test [2], the “hCD71:HSA” value came out at 324.

B20: CD71-binding FN3 domain SEQ ID NO: 328 (designed binder)
chain: B2 chain with H37Y, E39G, I67T, V80N, V83A, S84P
In the case of B20, in test [1], the RLU was determined as 2.18e+06 RLU. Further, the “hCD71:HSA” value in test [2] came out at 25.

B21: CD71-binding FN3 domain SEQ ID NO: 313 (designed binder)
chain: B2 chain with G36A, H37Y, L41D, Y42W, L43A, V51I, I67T, V80N, V83A, S84P
With B21, the RLU in test [1] turned out to be 2.97e+06 RLU. Further, the “hCD71:HSA” value in test [2] amounted to 480.

B22: CD71-binding FN3 domain SEQ ID NO: 303 (designed binder)
chain: MSLPAPKNLVVSRVTEDSARLSWTAPDAAFDSFWIEYWEGWKSGEAIVLTVPGSERSYDLTGLKPGTEYRVHIWGVKGGIVSWPLSAIFTT
As to B22, in test [1], the RLU was found to be 1.86e+06 RLU. Further, the “hCD71:HSA” value in test [2] was 212.

B23: CD71-binding FN3 domain SEQ ID NO: 290 (designed binder)
chain: MSLPAPKNLVVSRVTEDSARLSWTAPDAAFDSFFIGYLEPQPPGEAIHLYVPGSERSYDLTGLKPGTEYNVTIQGVKGGFPSEPLVATFTT
For the molecule B23, in test [1], the RLU stood at 5.98e+06 RLU. Besides, the “hCD71:HSA” value in test [2] was 138.

B24: CD71-binding FN3 domain SEQ ID NO: 266 (designed binder)
chain: B23 chain with H48Y, Y50L, E83L
B24: in test [1], the RLU was 5.41e+06 RLU. Further, in test [2], the “hCD71:HSA” value was 150.

B25: CD71-binding FN3 domain SEQ ID NO: 258 (designed binder)
chain: B23 chain with H48V, Y50G, E83D, T88S
In test [1], B25 yielded an RLU of 4.77e+06 RLU. In test [2], the “hCD71:HSA” value was determined as 212.

B26: CD71-binding FN3 domain SEQ ID NO: 270 (designed binder)
chain: B23 chain with V86I, T88N, F89S
For the molecule B26, the RLU in test [1] turned out to be 5.5e+06 RLU. In addition, the “hCD71:HSA” value in test [2] came to 65.

B27: CD71-binding FN3 domain SEQ ID NO: 243 (designed binder)
chain: B23 chain with F80E, P81W, E83A, V86S, T88I
B27 returned an RLU in test [1] of 2.78e+06 RLU. The “hCD71:HSA” value in test [2] stood at 355.

B28: CD71-binding FN3 domain SEQ ID NO: 234 (designed binder)
chain: B23 chain with H48A, T88H
In the case of B28, the RLU in test [1] turned out to be 6.42e+06 RLU. Also, in test [2], the “hCD71:HSA” value was 683.

B29: CD71-binding FN3 domain SEQ ID NO: 262 (designed binder)
chain: B23 chain with A46V, Y50F, E83D, T88S
In test [1], B29 showed an RLU of 6.78e+06 RLU. Further, the “hCD71:HSA” value in test [2] is 529.

B30: CD71-binding FN3 domain SEQ ID NO: 264 (designed binder)
chain: B23 chain with H48A, A87V, T88H
In the case of B30, the RLU in test [1] is 5.77e+06 RLU. In addition, the “hCD71:HSA” value in test [2] turned out to be 508.

B31: CD71-binding FN3 domain SEQ ID NO: 265 (designed binder)
chain: B23 chain with H48S, E83D, T88H
As for B31, the RLU in test [1] worked out at 5.66e+06 RLU. For the same molecule, the “hCD71:HSA” value in test [2] worked out at 409.

B32: CD71-binding FN3 domain SEQ ID NO: 314 (designed binder)
chain: MGSLPAPKNLVVSRVTEDSARLSWTAPDAAFDSFEIGYFENLYLGEAIVLTVPGSERSYDLTGLKPGTEYWVQIGGVKGGNWSAPLSAIFTT
On to B32, for which the RLU in test [1] turned out to be 3.15e+06 RLU. Also, the “hCD71:HSA” value in test [2] worked out at 256.
